Values quoted from earlier work as cited in PMC4696766.
Where two headings read alike, the source gives them in different places. Blank lines part the entries; values can stand above or below the substance they belong to.

Legend:
[1] = biological target: Histone H3 (Arabidopsis thaliana) (UniProt P59226)
[2] = biological target: Histone H3 (Homo sapiens) (UniProt P68431)
γH2A.X (Homo sapiens) = γH2A.X (Homo sapiens) (UniProt P16104)
di-γH2A.X (Homo sapiens) = di-γH2A.X (Homo sapiens) (UniProt P16104)
[3] = biological target: histone H3 H3K4me3 peptide (UniProt P61830)
[4] = biological target: histone H3 H3K4me2 peptide (UniProt P61830)
[5] = biological target: Histone H4 (Homo sapiens) (UniProt P62805); assay: NMR
[6] = biological target: histone H4 H4K20me2 peptide (UniProt P62805)
[7] = biological target: Histone H4 (Homo sapiens) (UniProt P62805)
PIWI (Homo sapiens) = PIWI (Homo sapiens) (UniProt Q96J94)
[8] = biological target: histone H3 H3K9me3 peptide (UniProt P61830)
[9] = biological target: Histone H3 (Drosophila melanogaster) (UniProt P02299)
[10] = biological target: Histone H3 (Homo sapiens) (UniProt P68431); remark: listed apart in the source
[11] = biological target: histone H3 H3K9me3 peptide (UniProt P61830); remark: listed apart in the source
[12] = biological target: Histone H3 (Homo sapiens) (UniProt P68431); remark: listed apart in the source
[13] = biological target: Histone H3 (Homo sapiens) (UniProt P68431); remark: listed apart in the source
[14] = biological target: histone H3 H3K9me2 peptide (UniProt P61830)
[15] = biological target: Histone H3 (Homo sapiens) (UniProt P68431); remark: listed apart in the source
histone H3 1-10 = histone H3 1-10 (UniProt P61830)
[16] = biological target: histone H3 H3K9me2 peptide (UniProt P61830); remark: listed apart in the source
[17] = biological target: Histone H3 (Arabidopsis thaliana) (UniProt P59226); remark: listed apart in the source
[18] = biological target: histone H3 H3K4me3 peptide (UniProt P61830); remark: listed apart in the source
[19] = biological target: Histone H3 (Homo sapiens) (UniProt P68431); remark: listed apart in the source
[20] = biological target: Histone H3 (Homo sapiens) (UniProt P68431); remark: listed apart in the source
[21] = biological target: Histone H3 (Homo sapiens) (UniProt P68431); remark: listed apart in the source
[22] = biological target: Histone H3 (Homo sapiens) (UniProt P68431); remark: listed apart in the source
[23] = biological target: histone H4 H4K20me3 peptide (UniProt P62805)
[24] = biological target: histone H3 H3K4me3 peptide (UniProt P61830); remark: listed apart in the source

G9a ankyrin repeats, sequence (Q96KQ7 649-879): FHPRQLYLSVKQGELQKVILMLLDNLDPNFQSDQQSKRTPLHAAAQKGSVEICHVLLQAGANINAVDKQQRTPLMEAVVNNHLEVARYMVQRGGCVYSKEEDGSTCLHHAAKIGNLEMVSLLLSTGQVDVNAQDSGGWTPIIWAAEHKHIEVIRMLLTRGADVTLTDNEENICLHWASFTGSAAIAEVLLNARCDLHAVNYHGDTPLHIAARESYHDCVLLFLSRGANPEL
BHC80 PHD finger, sequence (Q96BD5 whole entry): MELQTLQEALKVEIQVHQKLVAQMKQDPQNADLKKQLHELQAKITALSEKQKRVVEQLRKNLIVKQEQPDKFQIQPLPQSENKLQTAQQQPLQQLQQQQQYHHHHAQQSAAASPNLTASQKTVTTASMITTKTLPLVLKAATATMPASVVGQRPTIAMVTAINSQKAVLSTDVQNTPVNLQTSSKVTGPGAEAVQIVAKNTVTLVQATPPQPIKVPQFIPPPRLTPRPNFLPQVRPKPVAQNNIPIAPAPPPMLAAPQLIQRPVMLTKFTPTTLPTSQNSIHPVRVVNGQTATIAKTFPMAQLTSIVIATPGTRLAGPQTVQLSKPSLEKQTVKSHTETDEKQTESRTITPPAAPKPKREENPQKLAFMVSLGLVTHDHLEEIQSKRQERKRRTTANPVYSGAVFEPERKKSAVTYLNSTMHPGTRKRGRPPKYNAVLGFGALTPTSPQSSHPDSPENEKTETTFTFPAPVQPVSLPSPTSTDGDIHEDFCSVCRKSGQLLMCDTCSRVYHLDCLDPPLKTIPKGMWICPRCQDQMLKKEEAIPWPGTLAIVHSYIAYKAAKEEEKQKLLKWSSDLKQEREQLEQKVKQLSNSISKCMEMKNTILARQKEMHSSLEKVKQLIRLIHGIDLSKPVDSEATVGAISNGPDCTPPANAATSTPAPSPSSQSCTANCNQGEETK
CHD1 tandem chromodomains, sequence (O14646 272-452): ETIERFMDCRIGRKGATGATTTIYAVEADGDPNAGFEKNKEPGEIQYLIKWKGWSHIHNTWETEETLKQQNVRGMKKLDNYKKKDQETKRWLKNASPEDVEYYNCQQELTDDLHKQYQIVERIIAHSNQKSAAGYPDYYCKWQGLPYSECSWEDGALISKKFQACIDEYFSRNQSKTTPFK
MCPH1 tandem BRCT domains, sequence (Q8NEM0 640-833): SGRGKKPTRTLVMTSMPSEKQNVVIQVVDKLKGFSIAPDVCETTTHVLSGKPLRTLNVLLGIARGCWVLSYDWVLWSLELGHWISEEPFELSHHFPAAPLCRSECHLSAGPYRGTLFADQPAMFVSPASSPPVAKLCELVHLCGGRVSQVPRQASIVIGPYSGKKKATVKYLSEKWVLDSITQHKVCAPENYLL
JMJD2A tandem Tudor, sequence (O75164 897-1011): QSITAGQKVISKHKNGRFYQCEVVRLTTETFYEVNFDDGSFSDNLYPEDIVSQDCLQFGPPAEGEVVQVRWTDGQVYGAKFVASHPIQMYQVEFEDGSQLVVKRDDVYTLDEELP
14-3-3ζ, sequence (P63104 whole entry): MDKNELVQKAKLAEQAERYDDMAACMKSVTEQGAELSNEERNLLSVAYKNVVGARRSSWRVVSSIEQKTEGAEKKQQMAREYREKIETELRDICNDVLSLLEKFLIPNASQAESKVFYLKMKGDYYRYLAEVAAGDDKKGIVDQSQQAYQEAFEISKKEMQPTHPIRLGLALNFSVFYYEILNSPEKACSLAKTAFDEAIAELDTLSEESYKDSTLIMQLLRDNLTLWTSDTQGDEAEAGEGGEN
UHRF1 PHD finger, sequence (Q96T88 310-366): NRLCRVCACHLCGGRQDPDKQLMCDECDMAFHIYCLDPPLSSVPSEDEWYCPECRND
HP1 chromodomain, sequence (P05205 24-82): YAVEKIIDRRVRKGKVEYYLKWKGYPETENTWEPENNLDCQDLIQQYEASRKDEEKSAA
53BP1 tandem Tudor, sequence (Q12888 1484-1603): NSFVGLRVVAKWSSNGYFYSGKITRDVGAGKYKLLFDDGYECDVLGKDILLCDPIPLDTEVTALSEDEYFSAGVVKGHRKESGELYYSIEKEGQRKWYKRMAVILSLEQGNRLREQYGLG
53BP1 tandem Tudor domains, sequence (Q12888 1484-1603): as above
UHRF1 tandem Tudor-PHD cassette, sequence (Q96T88 133-366): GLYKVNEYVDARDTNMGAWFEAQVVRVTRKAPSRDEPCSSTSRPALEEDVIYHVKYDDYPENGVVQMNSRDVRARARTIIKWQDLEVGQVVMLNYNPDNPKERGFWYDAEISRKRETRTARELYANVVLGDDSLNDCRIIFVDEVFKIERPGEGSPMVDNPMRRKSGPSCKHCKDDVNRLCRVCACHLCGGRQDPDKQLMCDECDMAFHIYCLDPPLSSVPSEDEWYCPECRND
SND1 extended Tudor domain, sequence (Q7KZF4 650-910): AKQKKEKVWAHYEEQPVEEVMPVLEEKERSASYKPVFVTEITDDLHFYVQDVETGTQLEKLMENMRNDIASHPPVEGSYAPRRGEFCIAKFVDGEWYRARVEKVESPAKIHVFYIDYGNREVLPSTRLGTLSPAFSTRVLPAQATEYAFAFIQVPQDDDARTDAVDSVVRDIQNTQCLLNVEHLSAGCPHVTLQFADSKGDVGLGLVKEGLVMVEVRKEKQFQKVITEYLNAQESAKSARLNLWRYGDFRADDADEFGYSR
P/CAF bromodomain, sequence (Q92831 720-830): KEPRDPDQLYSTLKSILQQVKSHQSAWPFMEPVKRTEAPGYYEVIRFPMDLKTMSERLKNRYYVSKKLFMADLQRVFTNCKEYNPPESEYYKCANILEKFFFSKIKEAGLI
UHRF1 tandem Tudor domain, sequence (Q96T88 133-283): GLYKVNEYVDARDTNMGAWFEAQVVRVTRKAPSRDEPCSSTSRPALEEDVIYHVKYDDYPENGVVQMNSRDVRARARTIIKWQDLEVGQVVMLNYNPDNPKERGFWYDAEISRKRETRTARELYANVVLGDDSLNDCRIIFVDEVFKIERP
SHH1 tandem Tudor, sequence (Q9XI47 138-244): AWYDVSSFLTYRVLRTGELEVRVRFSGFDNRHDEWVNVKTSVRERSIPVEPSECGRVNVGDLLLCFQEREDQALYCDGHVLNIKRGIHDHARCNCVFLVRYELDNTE
SHH1 tandem Tudor domains, sequence (Q9XI47 138-244): as above
DPF3 tandem PHD fingers, sequence (Q92784 259-366): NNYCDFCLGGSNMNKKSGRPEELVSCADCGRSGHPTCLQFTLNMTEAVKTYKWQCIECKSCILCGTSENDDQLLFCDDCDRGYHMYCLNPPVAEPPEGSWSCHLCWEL

Kd (PIWI (Homo sapiens)): 10 µM
Substance: SND1 extended Tudor domain (from UniProt Q7KZF4)

Kd [8]: 2.5 µM
Kd [9]: 2.5 µM
Substance: HP1 chromodomain (from UniProt P05205)

Kd [10]: 0.37 µM
Substance: UHRF1 tandem Tudor-PHD cassette (from UniProt Q96T88)

Kd [14]: 1.9 µM
Substance: SHH1 tandem Tudor (from UniProt Q9XI47)

Kd [15]: 30 µM
Kd (histone H3 1-10): 30 µM
Substance: BHC80 PHD finger (from UniProt Q96BD5)

Kd [16]: 6 µM
Kd [17]: 6 µM
Substance: G9a ankyrin repeats (from UniProt Q96KQ7)

The next lines start with the substance.

Substance: SHH1 tandem Tudor domains (from UniProt Q9XI47)
Kd [1]: 1.9 µM

Substance: DPF3 tandem PHD fingers (from UniProt Q92784)
Kd [2]: 0.5 µM

Substance: MCPH1 tandem BRCT domains (from UniProt Q8NEM0)
Kd (γH2A.X (Homo sapiens)): 0.7 µM
Kd (di-γH2A.X (Homo sapiens)): 4.4 µM

Substance: BPTF PHD finger (from UniProt Q12830)
Kd [3]: 2.7 µM
Kd [4]: 5 µM

Substance: P/CAF bromodomain (from UniProt Q92831)
Kd [5]: 346 µM

Substance: 53BP1 tandem Tudor (from UniProt Q12888)
Kd [6]: 19.7 µM

Substance: 53BP1 tandem Tudor domains (from UniProt Q12888)
Kd [7]: 19.7 µM

Substance: ATRX ADD (from UniProt P46100)
Kd [11]: 0.5 µM

Substance: UHRF1 PHD finger (from UniProt Q96T88)
Kd [12]: 2.1 µM
Kd [13]: 1.47 µM

Substance: CHD1 tandem chromodomains (from UniProt O14646)
Kd [18]: 5 µM
Kd [19]: 5 µM

Substance: UHRF1 tandem Tudor domain (from UniProt Q96T88)
Kd [20]: 1.75 µM

Substance: 14-3-3ζ (from UniProt P63104)
Kd [21]: 23 µM
Kd [22]: 78 µM

Substance: JMJD2A tandem Tudor (from UniProt O75164)
Kd [23]: 0.4 µM
Kd [24]: 0.5 µM
